These results are taken from paper PMC9608600, “Functional Characterization of Saccharomyces cerevisiae P5C Reductase, the Enzyme at the Converging Point of Proline and Arginine Metabolism” (Microorganisms, 2022).

Series [1] addresses T1, Saccharomyces cerevisiae P5C reductase (Pro3, ScP5CR) (Saccharomyces cerevisiae, UniProt P32263).
T1 construct: native full-length enzyme purified from commercial bakers' yeast; untagged; gene-deduced subunit 30,132 Da; native 320 kDa, homodecamer
T1 sequence (P32263 1-286): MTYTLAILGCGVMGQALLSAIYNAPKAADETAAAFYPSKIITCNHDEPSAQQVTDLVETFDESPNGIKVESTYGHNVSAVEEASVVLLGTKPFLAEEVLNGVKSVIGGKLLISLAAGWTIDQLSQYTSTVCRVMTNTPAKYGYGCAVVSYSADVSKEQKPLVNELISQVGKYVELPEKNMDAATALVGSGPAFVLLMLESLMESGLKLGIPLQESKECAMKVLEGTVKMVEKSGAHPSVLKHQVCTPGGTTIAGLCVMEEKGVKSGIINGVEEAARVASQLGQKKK
Kind of series: NAD(P)H oxidation at […] nm, nonlinear regression. In kind it is biochemical.

Substrate in series [2]: NC(=O)C1=CN([C@@H]2O[C@H](COP(=O)(O)OP(=O)(O)OC[C@H]3O[C@@H](n4cnc5c(N)ncnc54)[C@H](OP(=O)(O)O)[C@@H]3O)[C@@H](O)[C@H]2O)C=CC1
Kind of series: purified protein. The format is biochemical, Saccharomyces cerevisiae. Particulars: 1 mM L-P5C, Tris-HCl pH 7.2, 30 °C, kcat per monomer.

Substrate in series [3]: O=C(O)[C@@H]1CCC=N1
Kind of series: purified protein. In kind it is biochemical, Saccharomyces cerevisiae. Particulars: 0.5 mM NADH co-substrate, Tris-HCl pH 7.2, 30 °C, DL-P5C used, concentration as L-P5C.

Substrate in series [4]: NC(=O)C1=CN([C@@H]2O[C@H](COP(=O)(O)OP(=O)(O)OC[C@H]3O[C@@H](n4cnc5c(N)ncnc54)[C@H](O)[C@@H]3O)[C@@H](O)[C@H]2O)C=CC1
Kind of series: purified protein. The format is biochemical, Saccharomyces cerevisiae. Particulars: 1 mM L-P5C, Tris-HCl pH 7.2, 30 °C, kcat per monomer.

Molecule `N=C(N)NCCC[C@H](N)C(=O)O` [arginine] registered a Ki in series [1] of 19 mM.

B1: Saccharomyces cerevisiae P5C reductase (Pro3, ScP5CR) (Saccharomyces cerevisiae S288C) (protein)
chain: T1 sequence (P32263 1-286)
notes: native full-length enzyme purified from commercial bakers' yeast; untagged; gene-deduced subunit 30,132 Da; native 320 kDa, homodecamer
B1: in series [2], the Michaelis constant (Km) is 133.4 ± 7.3 µM, the Vmax is 294.2 ± 5.7 μkat (mg protein)^−1, the kcat is 10,515 s^−1 and the catalytic efficiency (kcat/Km) is 7.88e+07 M⁻¹ s⁻¹. Moreover, the Km in series [3] is 64.3 ± 5.5 µM. For the same molecule, in series [4], the Km is 84.0 ± 7.1 µM, the Vmax is on record as 107.9 ± 3.0 μkat (mg protein)^−1, the kcat worked out at 3314 s⁻¹ and the kcat/Km came to 3.95e+07 M⁻¹ s⁻¹.
